Reference: publication PMC4227725 (Journal of the American Chemical Society, 2014)

Legend:
[1] = tested on: HeLa cells; settings: 2.5 μM, 30 min, 37 °C, heparin washes, phenol red-free medium
[2] = tested on: HeLa cells; settings: Tat polymer 2.5 μM, chymotrypsin 1 μM, up to 14 h

Substance	fluorescence in live cells, Z-stack 1 μm slices (in words) [1]	cell entry after incubation with chymotrypsin, time course (in words) [2]
GSGSG [GSGSG polymer]	no fluorescence was seen	–
YGRKKRRQRRR [Tat polymer]	–	retains the ability to enter cells
